These results are taken from patent US20250270343A1 (Alector, published 2025).

Assay [1] has as its target T1, full-length untagged human GPNMB expressed on cells (human, UniProt Q14956 23-572).
T1 construct: also used here for GPNMB on human monocyte-derived macrophages in the functional assays; also called huGPNMB; Freestyle293-huGPNMB+
T1 sequence: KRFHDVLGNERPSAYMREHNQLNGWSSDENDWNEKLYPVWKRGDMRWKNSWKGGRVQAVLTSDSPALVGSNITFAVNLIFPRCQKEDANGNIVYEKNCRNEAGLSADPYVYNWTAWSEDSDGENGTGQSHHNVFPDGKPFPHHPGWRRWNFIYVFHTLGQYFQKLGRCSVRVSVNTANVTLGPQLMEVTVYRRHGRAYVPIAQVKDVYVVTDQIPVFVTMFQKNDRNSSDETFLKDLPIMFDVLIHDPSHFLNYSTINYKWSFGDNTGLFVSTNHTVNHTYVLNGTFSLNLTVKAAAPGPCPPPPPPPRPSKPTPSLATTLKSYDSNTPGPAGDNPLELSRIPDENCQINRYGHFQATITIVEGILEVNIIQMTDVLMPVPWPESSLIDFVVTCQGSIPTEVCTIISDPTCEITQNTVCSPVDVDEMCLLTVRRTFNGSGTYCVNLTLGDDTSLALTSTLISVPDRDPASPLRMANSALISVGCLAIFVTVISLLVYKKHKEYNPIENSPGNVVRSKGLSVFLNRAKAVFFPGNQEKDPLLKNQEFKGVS
In words: FACS titration, FS293-huGPNMB+ cells. How it is done:
Cell-based binding measurements were also performed to measure the apparent affinities of anti-GPNMB antibodies of the present disclosure to cell-surface expressed GPNMB. Serial dilutions of the monoclonal anti-GPNMB antibodies were added to 100,000 Freestyle293-huGPNMB+ or B16F10 cells and allowed to achieve binding equilibrium at 4° C. After addition of fluorescently labeled secondary antibody and brief washing steps, MFI values as a function of titrated antibody concentration was recorded via FACS analysis. Curves were fit using nonlinear regression analysis with Graphpad Prism 6 software.

Assay [2] addresses T1, full-length untagged human GPNMB …. Put plainly: FACS, FS293-huGPNMB+ cells. How it is done:
Recombinant anti-GPNMB antibodies of the present disclosure were examined for their ability to bind human and/or mouse GPNMB expressed on Freestyle293-huGPNMB+ or B16F10 cells, respectively. B16F10 cells are a murine melanoma cell line from a C57BL/6J mouse that endogenously express high levels of mouse GPNMB. The antibodies were also tested for their ability to bind to a human macrophage cell line (U937 cells) engineered to express human GPNMB. Cells were harvested, plated at 100,000 cells/well in a 96-well round bottom plate, and incubated in 100 μl FACS buffer (PBS containing 2% FBS, 2 mM EDTA) containing anti-GPNMB monoclonal antibodies of the present disclosure for 30 minutes on ice. Cells were then washed and incubated in 100 ul FACS buffer containing 1 μg/ml APC-conjugated anti-human IgG secondary antibody for 30 minutes in ice. Cells were washed twice in cold FACS buffer and acquired on a BD FACS Canto. Data analysis and calculation of MFI values was performed with FlowJo (TreeStar) software version 10.0.7.
Importantly, several anti-GPNMB antibodies of the present disclosure also bound to the human macrophage cell line U937 cells engineered to express human GPNMB (U937/huGPNMB+) (FIG. 2C). In FIG. 2C, the first data point in each pair corresponds to U937/huGPNMB+ cells, and the second data point in each pair corresponds to U937/huGPNMB− cells. No anti-GPNMB antibodies bound to U937 cells deficient in human GPNMB expression (U937/huGPNMB−).

Assay [3] concerns the target T2, soluble cynomolgus GPNMB (recombinant extracellular domain) (cynomolgus, UniProt Q14956 23-499 (human entry), limits assumed).
T2 chain: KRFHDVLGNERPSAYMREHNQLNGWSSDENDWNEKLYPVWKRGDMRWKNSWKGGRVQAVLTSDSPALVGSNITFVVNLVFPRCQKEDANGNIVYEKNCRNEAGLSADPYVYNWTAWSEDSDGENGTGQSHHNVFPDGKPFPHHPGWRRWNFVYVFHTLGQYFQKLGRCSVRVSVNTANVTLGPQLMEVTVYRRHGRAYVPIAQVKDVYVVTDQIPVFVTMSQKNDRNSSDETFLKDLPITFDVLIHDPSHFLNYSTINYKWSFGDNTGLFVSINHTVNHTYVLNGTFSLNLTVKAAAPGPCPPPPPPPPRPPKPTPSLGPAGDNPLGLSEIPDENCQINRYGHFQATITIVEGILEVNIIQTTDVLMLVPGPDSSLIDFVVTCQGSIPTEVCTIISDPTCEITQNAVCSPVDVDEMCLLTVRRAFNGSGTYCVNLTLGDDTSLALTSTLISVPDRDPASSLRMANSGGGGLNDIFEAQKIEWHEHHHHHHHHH
Put plainly: SPR Carterra, Ab immobilized. Put shortly:
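Antibodies amine-coupled on HC200M chip in a 96-spot array; recombinant GPNMB ECD analytes injected at 2.5–600 nM, lowest to highest, without regeneration. Running buffer HBS-EP+ with 0.5 mg/ml BSA; two buffer blanks between species series. Kinetics fitted to yield affinity estimates.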

Changes are numbered by the printed parent chain.

B1: anti-GPNMB antibody GPN-41 (antibody, human IgG1, V domains shown)
VH: QLQLQQSGTEVVKPGASVKIPCKASGYAFSSYWMNWVKQRPGKGLEWIGQIYPGDGDTNDNGKFEGKATLTVDKSSNTAYIQLSSLTSEDSAVYFCARSPLHLRGSMDYWGQGTSVTVSS
VL: SIVMTQTPKFLLVSAGDRVTITCKASQSVSNDVAWFQQKPGQSPELLIYSASNRYTGVPDRFTASGYGTDFTFTISAVQAEDLAVYFCQQNYYSPFTFGGGTRLEIK
notes: chimeric
B1 registered an EC50 in assay [1] of 3.88 nM. In addition, the “MFI fold over background” value in assay [2] amounted to 23.6 fold.

B2: anti-GPNMB antibody GPN-65 (antibody, human IgG1, V domains shown)
VH: B1 VH
VL: B1 VL with A64G, A77T
notes: chimeric
Regarding B2, it took 2.6 nM to reach a half-maximal effect in assay [1] (EC50). Further, the “MFI fold over background” value in assay [2] stood at 8.1 fold.

B3: anti-GPNMB antibody GPN-24 (antibody, human IgG1, V domains shown)
VH: QVQLQQPGAELVKPGASVKMSCKASGYTFTSYWITWVKQRPGQGLEWIGDIHPGSGRSNYNEKFKNKATLNVDTSSSTVYMQLSSLTSEDSAVYYCARDYLFAYWGQGTLVTVSA
VL: DIQMTQSPSSLSASLGERVSLTCRASQEISGYLSWLQQKPDGTIKRLIYSTSTLDSGVPKRFSGSRSGSDYSLTISSLESEDFADYYCLQYTSSPPTFGGGTKLEIK
notes: chimeric
Molecule B3 yielded an EC50 in assay [1] of 0.22 nM. Moreover, in assay [2], the “MFI fold over background” value worked out at 59.9 fold. Also, in assay [3], the Kd was found to be 8.3 nM, the off-rate (koff) turned out to be 0.00061 s⁻¹ and the kon amounted to 77000 M⁻¹ s⁻¹.

B4: anti-GPNMB antibody GPN-22 (antibody, human IgG1, V domains shown)
VH: QVQLQQPGAERVKPGASVKMSCKASGYTFTSYWITWVKQRPGQGLEWIGDIFPGSGSTNYHEKFKSKATLTVDTSSSTAYMQLSSLTSEDSAVYYCSRGYFGSSFSDYWGQGTSVTVSS
VL: B3 VL with A25T, T92A, G100S
notes: chimeric
Molecule B4 displayed a concentration for a half-maximal effect (EC50) in assay [1] of 0.33 nM. The “MFI fold over background” value in assay [2] is 44.8 fold. Moreover, in assay [3], the Kd was 104 nM, the off-rate constant (koff) came to 0.0033 s⁻¹ and the kon was 32000 M⁻¹ s⁻¹.

B5: anti-GPNMB antibody GPN-26 (antibody, human IgG1, V domains shown)
VH: EVQLQQSGPELVKPGASVKISCKASGYSFTGYYMNWVRQSPEKSLEWIGEINPSTGITTYNQKFKAKATLTVDKSSNTAFMQLKSLTSEDSAVYYCARPASWFDYWGQGTLVTVSA
VL: B3 VL with Y32H, S50A, T51A, T92A, S94Y, P96Y
notes: chimeric
B5: a half-maximal response in assay [1] (EC50) required 1.09 nM. In addition, the “MFI fold over background” value in assay [2] amounted to 46.3 fold. For the same molecule, in assay [3], the Kd stood at 8.9 nM, the off-rate constant (koff) turned out to be 0.00027 s⁻¹ and the kon is 31000 M⁻¹ s⁻¹.

B6: anti-GPNMB antibody GPN-25 (antibody, human IgG1, V domains shown)
VH: B5 VH with R38K, S54G, T55S, N77S, F80Y, M81L, D104A
VL: B3 VL with L21F, T22I, Y32H, S50A, T51A, T92A, S94Y, P96Y
notes: chimeric
B6 registered an EC50 in assay [1] of 0.5 nM. For the same molecule, the “MFI fold over background” value in assay [2] was 42.7 fold. Besides, in assay [3], the Kd worked out at 7.4 nM, the koff is 0.0002 s⁻¹ and the on-rate constant (kon) came to 30000 M⁻¹ s⁻¹.

B7: anti-GPNMB antibody GPN-31 (antibody, human IgG1, V domains shown)
VH: B5 VH with R38K, S44N, S54N, I57G, N77T, F80Y, A97T
VL: B3 VL with Y32H, S50A, T51A, S65R, T92A, S94Y, P96Y, E105A
notes: chimeric
In assay [1], B7 showed an EC50 of 0.76 nM. For the same molecule, the “MFI fold over background” value in assay [2] is 53.8 fold. In assay [3], the dissociation constant (Kd) was found to be 11.2 nM, the off-rate (koff) worked out at 0.00036 s⁻¹ and the on-rate constant (kon) worked out at 32000 M⁻¹ s⁻¹.

B8: anti-GPNMB antibody GPN-38 (antibody, human IgG1, V domains shown)
VH: QVQLQQPGAELVRPGTSVRLSCKASGYTFTSYWIHWVKQRPGRGLEWIGVIDPSDSYTNYNQQFNVKATLTVDTSSSAAYMQLSSLTSEDSAVYYCARGLITAVNWYFDVWGTGTTVTVSS
VL: DIQMTQSPASLSTSVGEIVTITCRASENIYSYLTWYQQKQGKSPQLLVYNAKTLAEGVPSRFSGSGSGTQFSLKINSLQPEDFGTYYCQHHYGTPLTFGSGTKLEIK
notes: chimeric
As to B8, in assay [1], the midpoint of the response, the EC50, lay at 0.99 nM. The “MFI fold over background” value in assay [2] turned out to be 20.7 fold.

B9: anti-GPNMB antibody GPN-48 (antibody, human IgG1, V domains shown)
VH: QVQLQQSGPELVKPGASVKLSCRASGYGFSSFWMNWVKQRPGKGLEWIGRIYPGKGDTLYNGKFKDKATLTADESSSTAYMQLSSLTSEDSAVYFCARSIYYYDYWYFDVWDTGTTVTVSS
VL: DIVMTQSHKFMSTSVGDRVNITCKASQDVNSAIAWYQQKPGQSPKLLIYSASYRFIGVPDRFTGSGSGTGFTFTISSVQAEDLAVYYCQQHYTTPLTFGAGTKLELK
notes: chimeric
As for B9, the EC50 in assay [1] came out at 18.8 nM. For the same molecule, the “MFI fold over background” value in assay [2] was determined as 9.7 fold.

B10: anti-GPNMB antibody GPN-01 (antibody, human IgG1, V domains shown)
VH: QVQLQQSGAELAKPGASVKLSCKASGYNFTNYCIHWVKQRPGQGLEWIGYINPSTGYTEYNQKFKDKATLTADKSSTTAYMQLSSLTSEDSAVYYCARGRYDEFTYWGQGTLVTVSA
VL: DIVLTQSPASLAVSLGQRATISCRASKSVSTSTYSYMHWYQQKPGQPPKLLIYLASNLESGVPARFSGSGSGTDFTLNIHPVEEEDAATYYCQHSRELPPTFGGGTKLEIK
notes: chimeric
Molecule B10 yielded an EC50 in assay [1] of 0.17 nM. For the same molecule, in assay [2], the “MFI fold over background” value was determined as 43.2 fold. Also, in assay [3], the Kd was found to be 31 nM, the koff amounted to 0.0034 s⁻¹ and the kon stood at 110000 M⁻¹ s⁻¹.

B11: anti-GPNMB antibody GPN-35 (antibody, human IgG1, V domains shown)
VH: EVQLVESGGGSVRPGRSLKLSCAAAGFTFSDYYMTWVRQAPTKGLEWVASINHDGGGTYYRDSVKGRFTISRDNARSSLYLQMDSLRSEDTGTYYCTTRAGWHWGQGVMVTVSS
VL: DIQMTQSPASLSASLGETVSIECLASEDIYNYLTWYQQKPGKSPQVLIYSASGLQDGVPSRFSGSGSGRQYSLKINGLESEDAATYFCLQDSEYPLTFGSGTKLEIK
notes: chimeric
B11 displayed an EC50 in assay [1] of 1.33 nM. In addition, in assay [2], the “MFI fold over background” value was 104 fold.

B12: anti-GPNMB antibody GPN-11 (antibody, human IgG1, V domains shown)
VH: QVQLQQPGAELVKPGASVKLSCKASGYTFTSYWMHWVKQRPGQGLEWIGEINSSNGRTNYNEKFKTKATLTVDRSSSTAYMQLSSLTSEDSAVYYCARLGYYSGSPYPYYAMDCWGQGTSVTVSS
VL: DIQMTQSPASLSVSVGETVTITCRASENIYSNLAWYQQKQGKSPQLLVYAATNLADGVPSRFSGSGSGTQYSLKINSLQSEDFGSYYCQHFWNTPPTFGGGTKLEIK
notes: chimeric
In assay [1], B12 showed an EC50 of 0.3 nM. The “MFI fold over background” value in assay [2] amounted to 56.2 fold. In assay [3], the Kd was found to be 12.1 nM, the koff stood at 0.00095 s⁻¹ and the kon worked out at 83000 M⁻¹ s⁻¹.

B13: anti-GPNMB antibody GPN-37 (antibody, human IgG1, V domains shown)
VH: EVQLVESGGGLVQPGRSLKLSCAASGFTFSSKSGMAWVRQAPTKGLEWVASISNGGGDTYYRDSVKGRFTISRDNAKNTQYLQMDSLRPEDTATYYCARHRDYGYDAYFDYWGQGVMVTVSS
VL: DIQMTQSPASLSASLGETVTIECLASEDIYSSLAWYQQKPGKSPQLLIYDASSLQDGVPSRFSGSESGTQYSLEINSLQSEDAATYFCQQHHDYPYTFGAGTKLELK
notes: chimeric
In assay [1], B13 yielded a 50% effective concentration (EC50) of 0.75 nM. For the same molecule, the “MFI fold over background” value in assay [2] was determined as 105 fold.
